The data set is described as follows: yeast display, Sf9 membrane polyspecificity reagent, FACS + sequencing; frameworks hold sequencing errors. In outline: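 Polyreactivity labels are assigned by the sorting gate from which each nanobody was recovered. The gates were low and high (top ~1%), set on anti-HA fluorescence for expression and streptavidin fluorescence for reagent binding. Before sorting, galactose-induced (36–48 hours) yeast display cells were stained for 1 hour at 4 °C with 10% biotinylated, detergent-solubilized Sf9 membrane reagent.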
For the sequence “QGQLVESGGGFVQAGGSLRLSCAASGSTFRYYTMGWYRQAPGKEREFVAAITSSGTSTYYADSVKGRFTISRDIAKNTVYLQMNSLKPEDTAVYYCNKVGIYGSRSRYDSWGQGTQVTVSS”, the “polyreactivity (PSR sort gate)” value is on record as “high polyreactivity”.

Regarding “QGQLVESGGGLDQAGGSLRLSCAASGSTFPVYAMGLYRQAPGKDRELVAAITSGVSTNYADSVKGRFTISRDNAKNTVYVQKNSMKPEDTAVYYCAKEFGLLPIRDYYWGQGTQVTESS”, the “polyreactivity (PSR sort gate)” value is on record as “low polyreactivity”. “QGQLVESGGGLLQAGGSLRLSCAASGRTFPYNALGWYRQAPGKERELVAAMSSGTRTDSADAVKGRFTISRDTAKNTVYLQMNSLKPEATAVYYWAADDYHYLWRADGFDYWGQGTQVTVSS”: the “polyreactivity (PSR sort gate)” value is reported as “high polyreactivity”. Regarding “QGQLVESGGGLVHAGGSLRLSCAASGSIFTGNAMGWYIQAPGKEREMVAAITGRGGNTYYADSVKGRYTISRDNAKNTVYLQMMSLKPEETAGYYCAKVFFHTPIVPEYDYWGQGSQVTVSS”, the “polyreactivity (PSR sort gate)” value is given as “low polyreactivity”. For the sequence “QGQLVESGGGLVQAGGRLRLSCAATGLTFAKNAMGWYRQAPGKEREMFAAIRSGDDTTYADSVKGRFTISRDNAKNTVYLQMNSLKPEDSAEYYCAARYYRTWDGRFGYWGQGTQVTVSS”, the “polyreactivity (PSR sort gate)” value is “high polyreactivity”. Regarding “QGQLVESGGGLVQAGGSLLLSCAASGRIFTGKAMGWSRQAPGKERELGAAIDWSGGSTYYADSVKGRFTISRDNAKNTVYLQMNSLKPEDTAVYYCNATYSNSAVGYLGFDYWGQGTQVTVSS”, the “polyreactivity (PSR sort gate)” value is reported as “low polyreactivity”.

Regarding “QGQLVESGGGLVQAGGSLRFSCADSGRIFHRYVMGWYRQAPGKERELVAAISWSSGSTSADSVKGRFTISRDNAKNTDYLQMNSLKPEDTAVYYCNASYNGVPARYDYWGQGTQVTVSS”, the “polyreactivity (PSR sort gate)” value is recorded as “low polyreactivity”. Consider “QGQLVESGGGLVQAGGSLRIICAASANNFAKYAMGRYRQAPGKERELVAAISKRGGSTYYADSVKGRFTISRDNAKNTVYLQMNSLKPEETAVYYCAQRVLNYQRYDYWGQGTQVTVSS”, for which the “polyreactivity (PSR sort gate)” value is given as “high polyreactivity”. As to “QGQLVESGGGLVQAGGSLRITCAASGITFPYNAMGWYRQAPGTERELVAAITRSGASTYYADSVKGRFTISRDNSKNTVYVQMNSLKPEDTAVYYCAAKVIGRPRPYYYWGQGTQVTVSS”, the “polyreactivity (PSR sort gate)” value was “high polyreactivity”.

As to “QGQLVESGGGLVQAGGSLRLSCAASGFTFARNVMGWSRQAPGTERELVAAITTSGGSTYYADSVKGRFTISRDNAKNTVYLQMNSLKPEDTAVYYCARRVYGYYIPYNYWGQGTQVTVSS”, the “polyreactivity (PSR sort gate)” value was “high polyreactivity”.

Take “QGQLVESGGGLVQAGGSLRLSCAASGGIFKAYAMGWYRQAPGQERELVAVITIGGRTTYADSVKGRFTISRDNAKNTVYLQMNSLKPEDTAVYYCAKTNYNWLSTAEHDYWGQGTQVTVSS”: the “polyreactivity (PSR sort gate)” value is given as “low polyreactivity”. On to “QGQLVESGGGLVQAGGSLRLSCAASGGIFSDYAMGWYIQEPGKEREFVAAISVRGTSTDYADSVKGRFTISRDNAKNTVYLQMNSLKPEDTAVYYCNAQGAPQVRDVLPYEFDYWGQGTQVTVSS”, for which the “polyreactivity (PSR sort gate)” value is “low polyreactivity”. Take “QGQLVESGGGLVQAGGSLRLSCAASGGIFVGYPMGWYRQAPGKERELVASSDVRVGSTYYGDSVKGRFTISRDKAKNTVYLQMTSLKPEDTAVYSCEAGGRAVRIYWGYYRTSYDYWGLGTQVTVSS”: the “polyreactivity (PSR sort gate)” value is “low polyreactivity”. Take “QGQLVESGGGLVQAGGSLRLSCAASGGTFRAYVMGWSRQAPGKERELVADISRSGTRTYYADSVKGRFTISRDNAKNTVYLQMNSLKPEDTAVYYCAAAAKSWLFEYWGQGTQVTVSS”: the “polyreactivity (PSR sort gate)” value is “high polyreactivity”. “QGQLVESGGGLVQAGGSLRLSCAASGITVGVYARGRYRQEPGKEREFVADIDRTGGSTYAVSVKGRFTISRDIAKNTVYLQMNSLKPEDTAVYYCAAGWGFRFYYWYWGQGTQVTVSS”: the “polyreactivity (PSR sort gate)” value is given as “high polyreactivity”. With “QGQLVESGGGLVQAGGSLRLSCAASGLTLYYYAMGWYIQAPGKERELVAAINRGGSTYYADSVKGRFTISRDNAKNTVYLQMNSLKPEDTAVYYCAVDYGVRDLTYYYWGQGTQVTVSS”, the “polyreactivity (PSR sort gate)” value is “low polyreactivity”.

Regarding “QGQLVESGGGLVQAGGSLRLSCAASGNIFNRYGMGWSRQAPGKERELVAAISSSGTSPYYADSVKGRFTISRDYAKNTVYLQMNSLKPEDTAVYYCAASYPTRAWEYDYWGQGTQVTVSS”, the “polyreactivity (PSR sort gate)” value was “high polyreactivity”. With “QGQLVESGGGLVQAGGSLRLSCAASGNTFGKNAMGWYRQAPGKERELVAAIRSSGGSTYYADSVKGRFTISRDNAKNTVYLQMNSLKPEDSAVYYCNADVIRQTDGYDYWGQGTLVTVSS”, the “polyreactivity (PSR sort gate)” value was “high polyreactivity”. The same measure for “QGQLVESGGGLVQAGGSLRLSCAASGRIFPAYGMAWYRQAPGQERELVATIDNGGGTYYADSVKGRFTISRDNAKNTVYLQMNSLKPEDTAVYYCARDRHVRWGLKMDFWGQGTQVTVSS”: “low polyreactivity”; for “QGQLVESGGGLVQAGGSLRLSCAASGRIFRIYAMGWYRQAPGKERELVARITYSGGSTYYADSVKGRFTISRDNAKNTVYLQMNSLKPEDTAVYYCAADWLGYQYGYWGQGTQVTVSW”: “low polyreactivity”; for “QGQLVESGGGLVQAGGSLRLSCAASGRTFFNNVMGWYRQAPGKERELVAAISKSGTRTYYADSVKGRFTISRDNAKNTVYLQMNSVKPEDTAVYYCATGQYLRTSRYYYWGHGTQVTVSS”: “high polyreactivity”. With “QGQLVESGGGLVQAGGSLRLSCAASGRTFYANAMGWYRQAPGKERELVAAISTGGDGTYYADSVKGRFTISRDNAKNTVYLQMNSLKPEDAAVYYCAVRHRASGILYDYWGQGTQVTVSS”, the “polyreactivity (PSR sort gate)” value is reported as “low polyreactivity”. Take “QGQLVESGGGLVQAGGSLRLSCAASGRTFYRNAMGWYRQAPGKEREFVAAITSIGGATYYADSVKGRFTISRDNAKNTVDLQMNSLKPEDTAVYYCAAKGFRYPEYDYWGQGTQVTVSS”: the “polyreactivity (PSR sort gate)” value is reported as “low polyreactivity”. In the case of “QGQLVESGGGLVQAGGSLRLSCAASGSIFNTYAMGWYRQAPGKEREFVASISRSGGSTRYADSVKGRFTISRDNAKNTVYLQMNSLKPEDTEVYYSAARVPRGHVTYDSWGQGTKVTVSS”, the “polyreactivity (PSR sort gate)” value was “high polyreactivity”. Regarding “QGQLVESGGGLVQAGGSLRLSCAASGSIFPYYAMGWYRQAHGKERELVAVITTSGGRTYYADSVKGRFTISRDNAKNTVYLQMNSLKPADTAVYYCATDVRQGSGWRYYYWGQGTQVTVSS”, the “polyreactivity (PSR sort gate)” value is “high polyreactivity”. In the case of “QGQLVESGGGLVQAGGSLRLSCAASGSIFSLNSMGWYRQAPGKERELVAASGGGSTYYADSVKGRFTISRDNAKNTVYLQMNSLKTEDTAVYYCAGDQSFDYDFSHYYYWGQGTQVTVSS”, the “polyreactivity (PSR sort gate)” value is on record as “low polyreactivity”. Turning to “QGQLVESGGGLVQAGGSLRLSCAASGSIFVINAMGWYRQAPGKERELVAAIDWGGDTTYYADSVKGRFTISRDNAKNTVYLQMNSLKPEDSAVYYCAAGYYLRRYYYWGQGTQVTVSS”, the “polyreactivity (PSR sort gate)” value is given as “high polyreactivity”. With “QGQLVESGGGLVQAGGSLRLSCAASGSIFVYNVMGWYRQEPGKATELVADISKTAGRTYSADSVKGRFTISRDNAKNTVYLQINSLKPEDTAVSYCAVGNKRDAYYQYSSYGYWGQGTQVTVSS” the entry was “low polyreactivity”. “QGQLVESGGGLVQAGGSLRLSCAASGSIFYINAMGWYRQAPGKERELVASISGGGGSTYYADSVKGRFTLSRDNAKNTVYLQMNSLKPEDTAVYYCNTVSRKDYDYWGQGTQVTVSS”: the “polyreactivity (PSR sort gate)” value is recorded as “high polyreactivity”. The same measure for “QGQLVESGGGLVQAGGSLRLSCAASGSIYPLNVMGWYRQSPGKERELVATISKSGGSTYYADSVKGRITISRDNAKNTVYLQMNSLKPEDTGVYNCTVGRYVVGGTSVGYWGQGTQVSVSS”: “low polyreactivity”.

The values above are taken from the nanobody polyreactivity screen of Harvey et al. (2022).
